The target in assay [1] is T1, peanut allergen Ara h 6 (peanut (Arachis hypogaea), UniProt Q647G9 22-145).
T1 construct: also called recombinant Ara h 6
T1 sequence (looked up): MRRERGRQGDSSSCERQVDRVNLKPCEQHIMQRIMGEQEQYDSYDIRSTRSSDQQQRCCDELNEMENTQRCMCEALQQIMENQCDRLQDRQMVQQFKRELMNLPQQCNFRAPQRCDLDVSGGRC
The assay is described as follows: Phadia ImmunoCAP and/or ELISA and Western blot.

Assay [2] concerns the target T1, peanut allergen Ara h 6. The assay is described as follows: told in the text.
Assay [3] concerns the target T2, Ara h 2 peptide DSYERDPYSPSQDPY
T2 construct: peptide of the Luminex peptide array
T2 peptide: DSYERDPYSPSQDPY
The assay can be described thus: Luminex peptide array. The text has this:
(§1) Peptide microarray. The inventor used peptide arrays to help determine the approximate locations of the antigenic sites targeted by his human IgE mAbs. In collaboration with Dr. Hugh Sampson at Mount Sinai he tested Ara h 2-specific IgE mAbs using a Luminex peptide array technology (Shreffler et al., 2004). […] Several of the Ara h 2 site CR-A-specific IgE mAbs, however, bound strongly to peptide […] at the C-terminus of the allergen protein. Ara h 2 site SP-B-specific antibody 38B7, which competes with all Ara h 2 site CR-B antibodies, bound to two peptides […] and […]. […] In that paper the authors used the fusion protein to define an immunodominant population of IgE antibodies in the sera of peanut allergic subjects, which is the population the inventor defines here as site CR-B, the immunodominant antigenic site of Ara h 2. This region has also been described previously as being an immunodominant target of the Ara h 2 and Ara h 6 IgE antibody response seen in human sera (Chen et al., 2016). These peptides make up the disordered loop between helices 2 and 3 of Ara h 2, the region that differs between Ara h 2.01 and Ara h 2.02 isoforms, not present in the crystal structure due to its high degree of flexibility. […]

Assay [4] addresses T3, Ara h 2 peptide PYSPSQDPYSPSPYD
T3 construct: peptide of the Luminex peptide array
T3 peptide: PYSPSQDPYSPSPYD
The assay can be described thus: Luminex peptide array.
Text: as §1

For a further assay, the target named is T4, peanut allergen Ara h 3 (peanut (Arachis hypogaea)).
T4 construct: also called F424
The assay can be described thus: ImmunoCAP, hybridoma supernatant. On the procedure: (§2) Verification and validation of IgE mAbs peanut allergen specificity. Following the unbiased generation of IgE secreting human hybridomas from peanut allergic subject PBMCs, peanut protein binding and peanut allergen protein specificity was determined. Hybridoma culture supernatant was initially used for this validation. […] Using the available ImmunoCAP components (purified allergen proteins: Ara h 1, F422; Ara h 2, F423; Ara h 3, F424; Ara h 8 F352; Ara h 9 F427), the exact allergen specificity was determined for those which bound Ara h 1, 2, and 3.
(§3) Hybridoma cell culture supernatant was used for initial identification of allergen specificity using ImmunoCAP analysis. Peanut reactivity was first determined using peanut ImmunoCAP. Component analysis identified IgE antibodies specific for Ara h 1, 2, and 3. All antibodies not identified in this table were determined to bind Ara h 6.

Another assay has as its target T5, peanut allergen Ara h 8 (peanut (Arachis hypogaea)).
T5 construct: ImmunoCAP component F352; also called F352
The assay can be described thus: ImmunoCAP, hybridoma supernatant. On the procedure:
as §2, §3

The target of the next assay is T6, peanut allergen Ara h 9 (peanut (Arachis hypogaea)).
T6 construct: ImmunoCAP component F427; also called F427
The assay is described as follows: ImmunoCAP, hybridoma supernatant. The protocol: as §2, §3

For a further assay, the target named is T7, peanut allergen Ara h 1 (peanut (Arachis hypogaea), UniProt P43238 26-626).
T7 construct: also called F422
T7 sequence (looked up): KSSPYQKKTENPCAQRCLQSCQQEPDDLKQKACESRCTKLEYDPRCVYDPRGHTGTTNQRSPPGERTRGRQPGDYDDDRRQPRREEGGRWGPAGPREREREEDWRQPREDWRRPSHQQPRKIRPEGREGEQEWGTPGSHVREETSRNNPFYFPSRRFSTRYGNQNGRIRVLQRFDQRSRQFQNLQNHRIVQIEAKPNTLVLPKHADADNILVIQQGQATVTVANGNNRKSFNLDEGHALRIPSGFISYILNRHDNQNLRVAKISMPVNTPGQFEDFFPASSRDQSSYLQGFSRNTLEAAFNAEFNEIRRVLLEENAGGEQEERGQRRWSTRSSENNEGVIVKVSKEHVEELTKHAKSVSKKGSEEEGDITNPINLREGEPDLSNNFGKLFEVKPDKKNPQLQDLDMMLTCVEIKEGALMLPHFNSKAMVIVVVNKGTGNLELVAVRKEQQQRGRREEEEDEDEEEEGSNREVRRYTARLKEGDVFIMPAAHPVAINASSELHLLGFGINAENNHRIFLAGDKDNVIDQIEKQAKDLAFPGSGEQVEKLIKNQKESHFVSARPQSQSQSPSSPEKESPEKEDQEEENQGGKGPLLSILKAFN
The assay is described as follows: allergen specificity as listed in Table D.

Eight molecules from patent US20240254209A1 (published 2024) can be followed below.

B1: human IgE mAb 9A11 (antibody, V domains shown)
VH: EVQLVESGGGLVRPGGSLRLSCVASGFTFNTYWMHWVRQAPGKGLLWVSSLNKDGSSPTYADSVKGRFTISRDNTNNTLFLQLDSLRAEDTAVYYCVRDRRAVTTARYFDLWGRGTLVTVSS
VL: DIVMTQSPESLAVSLGERATINCKSSSNIDNYLGWYQQRPGQPPKLLIYWASKRESGVPDRFSGSGSGTDFTLTIGRLQAEDVAVYYCQQYYTSPPVTFGGGTKVEIK
notes: human IgE from hybridoma
Regarding B1, the binding result in the assay with peanut allergen Ara h 6 [1] is recorded as “binds”.

B2: human IgE mAb 11F10 (antibody, V domains shown)
VH: EVQLVESGGGLVQPGRSLRLSCAASGFTFDDYTMHWVRQAPGKGLEWVSSIRWNSGNLDYADSVKGRFTISRDNARHSLYLQMNSLRAEDTALYYCVKDNGLRTLDFWGQGTLVTVSS
VL: DIVMTQSPLSLPVTPGEPASISCRSSQSLLHRNGYNYLDWYLQKPGQSPQLLISLASNRASGVPDRFSGSGSGTDFTLKISRVEAEDVGVYYCMQALQTWTFGQGTKVELK
notes: human IgE from hybridoma
B2: the binding result with peanut allergen Ara h 6 [2] is on record as “binds”.

B3: human IgE mAb 38B7 (antibody, V domains shown)
VH: QVQLVESGGGVVQPGRSLRLSCVGSGFTFRRDAKYWVRQAPGKGLEWVAAISHDGGEEDYAESVKGRFTISRDNSRETVYLEMNSLRPEDTAVYYCATTRSGWYFDYWGQGALVTVSS
VL: EIVLTQSPATLSLSPGARATLSCRASQSVDTYLAWYQQRRGQSPRLLIYDASKRATGIPARFSGSGSGTDFTLTISSLEPEDFAVYYCQQRNNWRTWTFGQGTKVEIN
notes: human IgE from hybridoma
Consider B3, for which the binding result in assay [3] and in assay [4] was “binds” in each case. Also, the “ImmunoCAP kUA/L” value stood at 0.23 kUA/L with peanut allergen Ara h 3, 0.15 kUA/L with peanut allergen Ara h 8 and 0.11 kUA/L in the assay with peanut allergen Ara h 9.

B4: human IgE mAb 21C10 (antibody, V domains shown)
VH: EVQLVESGGGLVKPGGSLRLSCAASGFILSRSSMSWVRQAPGKGLEWVSYISSTSSHIYYADSLKGRFTISRDNTENSVYLQMSSLRAEDTGVYYCARKTNGAWFLDLWGRGTLVTVSS
VL: QSVLTQPPSVSGAPGQRVTISCTGSSSNIGAGSDVHWYQQFPGSAPHVLIYGNNQRPSGVPDRFSASKSGTSASLAITGLQADDEADYYCQSYDYDLSGSWVFGGGTKLTVL
notes: human IgE from hybridoma
As for B4, the “ImmunoCAP kUA/L” value in the assay with peanut allergen Ara h 3 came to 0.83 kUA/L; with peanut allergen Ara h 8, 0.53 kUA/L; with peanut allergen Ara h 9 it was 0.32 kUA/L. Besides, in the assay with peanut allergen Ara h 6 [1], the binding result is reported as “binds”.

B5: human IgE mAb 3B10 (antibody, V domains shown)
VH: EVQLVESGGALVKPGGSLRLSCEGSGFMFSSAWLHWVRQAPGMGLELVGRMKSETDGGTLDYTAPVRGRFTISRDDSKNMFFLQMNSLKAEDTAVYYCVTGNFDYRSSPLGFWGQGALVTVSS
VL: DIQMTQSPSTLSASAGDRVTITCRASENIYKWLAWYQQKPGKAPKLLIYKVSTLESGVPSRFSGSGFGTEFTLTISSLQPGDFATYYCQHYNSFPFTFGQGTKLEVK
notes: human IgE from hybridoma
Turning to B5, the binding result with peanut allergen Ara h 1 is “binds”.

B6: human IgE mAb 40C7 (antibody, V domains shown)
VH: EVQLVESGGDLVQPGGSLRLSCAASRFSFGSYAMSWVRQAPGKGLEWVSAISSSGGRAYYADSVKGRFTISRDNSRNTLYLQLNSLRGEDTAFYYCTKEGDTGSLWLFDSWGQGTLVTVSS
VL: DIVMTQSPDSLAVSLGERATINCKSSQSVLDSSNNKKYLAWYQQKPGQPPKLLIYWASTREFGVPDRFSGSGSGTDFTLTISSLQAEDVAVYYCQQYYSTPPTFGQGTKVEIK
notes: human IgE from hybridoma
Regarding B6, the binding result in the assay with peanut allergen Ara h 1 is reported as “binds”.

B7: human IgE mAb 20G11 (antibody, V domains shown)
VH: QVQLVESGGGVVQPGGSLRLSCATSGFTFSSYGMHWVRQAPGKGLEWVAFIRYNGSNKYYADSVKGRFTISRDTSKNTLYLQMNSLRAEDSAVYYCAKDGDYDSWSGLTEHFQHWGQGTLVTVSS
VL: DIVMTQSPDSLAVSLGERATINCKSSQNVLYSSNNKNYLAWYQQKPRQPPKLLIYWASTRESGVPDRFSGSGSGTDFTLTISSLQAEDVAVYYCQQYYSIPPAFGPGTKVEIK
notes: human IgE from hybridoma
Consider B7, for which the binding result in the assay with peanut allergen Ara h 6 [2] was “binds”.

B8: human IgE mAb 20M10 (antibody, V domains shown)
VH: EVQLVESGGGLVKPGGSLRLSCTVSGFTFNMHSMNWVRQAPGKGLEWVSFISSTSTYIYYPDSVKGRFTVSRDNSKNSLYLQMTSLRAEDTAVYYCVRRGRGGAARALDNWGQGTLVTVSS
VL: SYVLPQTPSLSVAPGQTATISCGGNNTGSKSVHWYQQKPGQAPLLVVYDNSDRPSGIPERFSGSNSGNTATLTLSRVEAEDEADYYCQVWDSTIDHVIFGGGTKLTVL
notes: human IgE from hybridoma
As to B8, in the assay with peanut allergen Ara h 6 [1], the binding result is on record as “binds”.
